This note sets out measurements from patent US20200087347 (published 2020).

Side-chain parts run from the residue outwards. [ ]: non-standard residue; d: D form. NMeK = CN[C@@H](CCCCN)C(=O)O; BDPFL = dye

Common to all, as to test: competition
One assay has as its target T1, integrin αvβ8 (human, UniProt P06756).
T1 chain 1: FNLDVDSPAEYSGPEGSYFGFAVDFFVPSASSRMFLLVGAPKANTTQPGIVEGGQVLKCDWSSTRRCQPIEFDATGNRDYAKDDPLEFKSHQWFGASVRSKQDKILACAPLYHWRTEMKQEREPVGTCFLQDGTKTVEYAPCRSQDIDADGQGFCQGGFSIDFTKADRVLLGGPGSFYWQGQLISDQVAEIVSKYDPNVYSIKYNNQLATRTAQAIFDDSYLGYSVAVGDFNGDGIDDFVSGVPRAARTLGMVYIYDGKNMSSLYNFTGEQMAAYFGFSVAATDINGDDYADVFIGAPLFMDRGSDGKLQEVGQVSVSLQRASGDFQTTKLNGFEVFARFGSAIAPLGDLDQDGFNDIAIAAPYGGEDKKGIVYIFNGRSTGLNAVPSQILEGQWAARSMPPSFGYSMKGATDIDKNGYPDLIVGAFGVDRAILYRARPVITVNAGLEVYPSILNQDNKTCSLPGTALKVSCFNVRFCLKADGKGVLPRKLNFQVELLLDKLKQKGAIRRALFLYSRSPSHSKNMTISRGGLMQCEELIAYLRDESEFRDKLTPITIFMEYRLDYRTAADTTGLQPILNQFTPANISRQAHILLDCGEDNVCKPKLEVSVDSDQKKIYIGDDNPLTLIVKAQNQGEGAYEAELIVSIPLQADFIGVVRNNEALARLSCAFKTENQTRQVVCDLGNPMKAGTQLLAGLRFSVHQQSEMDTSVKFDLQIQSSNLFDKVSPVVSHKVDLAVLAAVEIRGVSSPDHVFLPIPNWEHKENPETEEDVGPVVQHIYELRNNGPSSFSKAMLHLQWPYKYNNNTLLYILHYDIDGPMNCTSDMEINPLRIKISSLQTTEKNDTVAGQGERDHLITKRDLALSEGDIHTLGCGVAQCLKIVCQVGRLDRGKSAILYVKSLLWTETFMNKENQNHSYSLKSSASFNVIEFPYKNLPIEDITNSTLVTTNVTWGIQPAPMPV
T1 chain 2: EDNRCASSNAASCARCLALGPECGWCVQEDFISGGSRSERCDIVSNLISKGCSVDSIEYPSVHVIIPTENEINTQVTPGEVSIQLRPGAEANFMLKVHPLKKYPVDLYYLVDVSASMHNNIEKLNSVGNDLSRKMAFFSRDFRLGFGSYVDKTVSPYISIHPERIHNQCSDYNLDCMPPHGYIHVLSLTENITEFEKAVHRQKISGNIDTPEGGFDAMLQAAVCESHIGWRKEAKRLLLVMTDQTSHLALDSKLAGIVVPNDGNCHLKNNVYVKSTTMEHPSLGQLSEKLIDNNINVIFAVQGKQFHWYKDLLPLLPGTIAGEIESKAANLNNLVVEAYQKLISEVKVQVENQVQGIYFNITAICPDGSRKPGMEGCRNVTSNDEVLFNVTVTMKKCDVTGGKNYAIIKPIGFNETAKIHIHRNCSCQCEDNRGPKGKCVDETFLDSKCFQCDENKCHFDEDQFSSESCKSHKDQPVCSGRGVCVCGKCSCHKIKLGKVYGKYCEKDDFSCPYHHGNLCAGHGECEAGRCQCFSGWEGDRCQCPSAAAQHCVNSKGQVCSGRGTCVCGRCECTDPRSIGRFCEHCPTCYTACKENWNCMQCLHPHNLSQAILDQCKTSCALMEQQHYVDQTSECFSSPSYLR

The target of another assay is integrin α5β1 (human, UniProt P08648).
integrin α5β1, sequence (P08648 42-1049, chain 1 of 2): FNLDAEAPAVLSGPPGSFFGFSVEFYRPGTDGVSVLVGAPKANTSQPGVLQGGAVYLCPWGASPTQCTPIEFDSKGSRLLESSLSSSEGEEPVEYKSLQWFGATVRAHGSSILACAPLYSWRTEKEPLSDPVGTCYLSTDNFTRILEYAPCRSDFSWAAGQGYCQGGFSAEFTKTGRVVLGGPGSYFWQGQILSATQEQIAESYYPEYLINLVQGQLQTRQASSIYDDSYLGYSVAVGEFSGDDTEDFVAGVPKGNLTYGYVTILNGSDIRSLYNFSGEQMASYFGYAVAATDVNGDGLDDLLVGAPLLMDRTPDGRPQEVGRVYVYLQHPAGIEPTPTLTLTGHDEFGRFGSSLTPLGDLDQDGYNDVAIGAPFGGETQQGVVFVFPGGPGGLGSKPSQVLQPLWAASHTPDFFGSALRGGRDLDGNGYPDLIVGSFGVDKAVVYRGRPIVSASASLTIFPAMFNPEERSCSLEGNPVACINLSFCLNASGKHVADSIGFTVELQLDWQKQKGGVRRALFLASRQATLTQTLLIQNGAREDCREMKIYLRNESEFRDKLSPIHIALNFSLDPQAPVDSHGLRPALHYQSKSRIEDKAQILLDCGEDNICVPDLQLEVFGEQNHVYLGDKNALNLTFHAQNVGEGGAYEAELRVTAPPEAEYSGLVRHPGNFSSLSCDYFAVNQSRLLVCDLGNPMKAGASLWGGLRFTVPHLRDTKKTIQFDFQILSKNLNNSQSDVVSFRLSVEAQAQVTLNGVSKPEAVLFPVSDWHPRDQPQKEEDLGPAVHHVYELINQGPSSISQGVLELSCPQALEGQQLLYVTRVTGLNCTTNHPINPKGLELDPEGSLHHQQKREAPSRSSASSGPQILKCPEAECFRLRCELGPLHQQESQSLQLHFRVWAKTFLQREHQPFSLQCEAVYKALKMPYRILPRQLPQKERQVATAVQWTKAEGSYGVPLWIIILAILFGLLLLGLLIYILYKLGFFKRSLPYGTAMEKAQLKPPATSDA
integrin α5β1, sequence (chain, as listed by the source, chain 2 of 2): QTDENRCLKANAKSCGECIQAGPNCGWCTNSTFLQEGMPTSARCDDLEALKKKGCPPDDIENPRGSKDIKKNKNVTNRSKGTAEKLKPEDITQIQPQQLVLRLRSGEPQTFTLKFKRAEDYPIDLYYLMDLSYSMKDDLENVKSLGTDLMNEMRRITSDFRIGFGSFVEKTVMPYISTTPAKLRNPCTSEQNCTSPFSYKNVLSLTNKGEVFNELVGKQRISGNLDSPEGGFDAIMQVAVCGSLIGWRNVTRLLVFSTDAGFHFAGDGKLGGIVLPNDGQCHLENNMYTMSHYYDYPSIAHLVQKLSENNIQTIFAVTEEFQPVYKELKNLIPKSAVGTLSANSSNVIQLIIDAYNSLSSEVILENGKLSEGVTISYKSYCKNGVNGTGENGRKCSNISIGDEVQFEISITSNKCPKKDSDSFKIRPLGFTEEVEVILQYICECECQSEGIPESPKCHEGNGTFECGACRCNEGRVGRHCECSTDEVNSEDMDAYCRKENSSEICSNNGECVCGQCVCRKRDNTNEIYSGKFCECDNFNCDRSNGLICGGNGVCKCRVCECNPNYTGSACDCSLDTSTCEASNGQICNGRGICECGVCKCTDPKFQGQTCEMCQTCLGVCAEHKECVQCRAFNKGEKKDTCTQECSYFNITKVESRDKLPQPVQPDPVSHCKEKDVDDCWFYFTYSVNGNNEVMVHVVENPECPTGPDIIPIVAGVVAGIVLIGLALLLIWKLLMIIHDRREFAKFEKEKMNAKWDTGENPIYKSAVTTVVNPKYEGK
The next assay has as its target T2, integrin αvβ5 (human, UniProt P06756).
T2 chain 1: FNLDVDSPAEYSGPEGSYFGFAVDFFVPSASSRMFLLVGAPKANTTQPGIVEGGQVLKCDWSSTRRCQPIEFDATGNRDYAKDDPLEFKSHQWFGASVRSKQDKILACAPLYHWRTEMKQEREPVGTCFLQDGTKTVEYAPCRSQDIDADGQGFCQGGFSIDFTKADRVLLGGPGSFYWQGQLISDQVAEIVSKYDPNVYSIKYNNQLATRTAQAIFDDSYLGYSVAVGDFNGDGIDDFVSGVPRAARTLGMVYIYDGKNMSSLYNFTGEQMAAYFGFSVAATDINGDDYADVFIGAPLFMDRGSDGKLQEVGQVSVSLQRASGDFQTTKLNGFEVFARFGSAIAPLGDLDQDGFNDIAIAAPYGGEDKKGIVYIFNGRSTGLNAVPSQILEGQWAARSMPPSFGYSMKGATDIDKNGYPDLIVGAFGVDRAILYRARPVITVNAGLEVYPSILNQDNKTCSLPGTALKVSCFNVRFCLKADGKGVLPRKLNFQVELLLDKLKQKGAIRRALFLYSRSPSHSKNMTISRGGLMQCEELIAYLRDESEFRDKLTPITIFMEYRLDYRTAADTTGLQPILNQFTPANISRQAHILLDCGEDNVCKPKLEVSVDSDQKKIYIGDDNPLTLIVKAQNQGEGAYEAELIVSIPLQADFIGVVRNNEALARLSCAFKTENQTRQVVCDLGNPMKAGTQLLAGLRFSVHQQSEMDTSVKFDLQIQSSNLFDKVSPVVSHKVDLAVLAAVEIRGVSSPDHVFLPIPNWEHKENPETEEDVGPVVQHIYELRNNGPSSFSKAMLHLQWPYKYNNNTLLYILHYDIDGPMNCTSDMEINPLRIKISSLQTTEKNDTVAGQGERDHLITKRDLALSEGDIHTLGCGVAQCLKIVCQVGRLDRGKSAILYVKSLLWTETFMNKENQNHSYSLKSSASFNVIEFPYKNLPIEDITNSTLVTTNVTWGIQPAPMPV
T2 chain 2: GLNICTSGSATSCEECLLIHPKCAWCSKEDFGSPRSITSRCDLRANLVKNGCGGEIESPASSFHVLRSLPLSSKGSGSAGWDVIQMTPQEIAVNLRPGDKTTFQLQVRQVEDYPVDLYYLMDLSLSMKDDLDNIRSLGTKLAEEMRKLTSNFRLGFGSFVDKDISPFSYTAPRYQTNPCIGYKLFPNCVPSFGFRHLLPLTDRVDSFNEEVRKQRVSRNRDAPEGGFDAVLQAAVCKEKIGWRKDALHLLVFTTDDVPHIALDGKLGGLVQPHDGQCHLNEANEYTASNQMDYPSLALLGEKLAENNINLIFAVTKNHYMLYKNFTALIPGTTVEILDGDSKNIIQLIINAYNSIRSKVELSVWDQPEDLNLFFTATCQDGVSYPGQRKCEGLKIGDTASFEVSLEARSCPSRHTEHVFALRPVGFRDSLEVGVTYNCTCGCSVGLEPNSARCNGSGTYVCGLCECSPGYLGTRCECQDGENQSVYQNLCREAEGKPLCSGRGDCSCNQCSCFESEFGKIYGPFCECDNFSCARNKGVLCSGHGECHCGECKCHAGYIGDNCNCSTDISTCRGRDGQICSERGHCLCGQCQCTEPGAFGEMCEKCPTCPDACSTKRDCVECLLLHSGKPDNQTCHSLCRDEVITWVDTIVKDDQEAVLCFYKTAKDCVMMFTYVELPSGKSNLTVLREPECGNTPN

A further assay concerns the target T3, integrin αvβ6 (human, UniProt P06756).
T3 chain 1: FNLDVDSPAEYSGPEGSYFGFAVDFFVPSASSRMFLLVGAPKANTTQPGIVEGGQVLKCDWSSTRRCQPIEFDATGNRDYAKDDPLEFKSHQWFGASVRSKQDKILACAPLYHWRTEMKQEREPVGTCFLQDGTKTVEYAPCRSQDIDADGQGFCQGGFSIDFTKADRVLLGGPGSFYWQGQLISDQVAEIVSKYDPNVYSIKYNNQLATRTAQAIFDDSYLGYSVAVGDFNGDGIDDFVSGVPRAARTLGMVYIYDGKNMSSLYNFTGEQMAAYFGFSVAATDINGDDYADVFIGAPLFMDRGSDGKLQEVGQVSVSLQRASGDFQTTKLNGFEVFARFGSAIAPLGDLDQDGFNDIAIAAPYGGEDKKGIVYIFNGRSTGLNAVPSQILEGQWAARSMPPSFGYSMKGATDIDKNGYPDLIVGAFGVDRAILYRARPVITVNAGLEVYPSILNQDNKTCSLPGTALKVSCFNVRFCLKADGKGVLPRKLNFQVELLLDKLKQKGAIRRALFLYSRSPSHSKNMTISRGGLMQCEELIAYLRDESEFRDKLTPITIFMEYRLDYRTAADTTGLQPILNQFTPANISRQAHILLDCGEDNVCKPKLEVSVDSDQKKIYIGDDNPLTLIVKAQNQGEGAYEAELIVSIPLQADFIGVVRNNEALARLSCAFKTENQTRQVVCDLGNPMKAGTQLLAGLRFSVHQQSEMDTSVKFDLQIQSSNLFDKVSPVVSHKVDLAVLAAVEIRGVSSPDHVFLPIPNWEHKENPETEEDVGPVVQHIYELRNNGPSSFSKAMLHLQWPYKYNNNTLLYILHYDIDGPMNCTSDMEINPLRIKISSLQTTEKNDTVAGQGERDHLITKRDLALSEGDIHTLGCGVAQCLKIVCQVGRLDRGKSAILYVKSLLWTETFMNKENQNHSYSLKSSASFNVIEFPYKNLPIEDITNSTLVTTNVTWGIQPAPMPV
T3 chain 2: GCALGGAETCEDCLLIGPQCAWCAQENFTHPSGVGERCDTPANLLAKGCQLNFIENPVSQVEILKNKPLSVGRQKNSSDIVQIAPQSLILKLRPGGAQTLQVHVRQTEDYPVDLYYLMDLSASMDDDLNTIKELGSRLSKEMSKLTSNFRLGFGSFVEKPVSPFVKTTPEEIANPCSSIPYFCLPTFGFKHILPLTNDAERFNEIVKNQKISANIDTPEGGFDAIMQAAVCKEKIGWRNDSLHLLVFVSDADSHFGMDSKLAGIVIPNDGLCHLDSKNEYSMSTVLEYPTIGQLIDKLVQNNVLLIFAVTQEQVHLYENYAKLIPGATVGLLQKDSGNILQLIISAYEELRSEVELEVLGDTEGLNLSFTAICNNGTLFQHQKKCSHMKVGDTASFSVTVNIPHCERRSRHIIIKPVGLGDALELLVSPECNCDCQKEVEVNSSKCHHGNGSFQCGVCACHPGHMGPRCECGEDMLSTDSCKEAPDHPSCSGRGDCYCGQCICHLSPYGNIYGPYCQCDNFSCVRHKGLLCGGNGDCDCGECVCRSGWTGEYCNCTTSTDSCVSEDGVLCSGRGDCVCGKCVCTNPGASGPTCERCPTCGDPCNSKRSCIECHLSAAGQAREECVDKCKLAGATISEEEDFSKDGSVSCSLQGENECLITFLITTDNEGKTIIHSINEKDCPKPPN

The next assay has as its target T4, integrin αvβ3 (human, UniProt P06756).
T4 chain 1: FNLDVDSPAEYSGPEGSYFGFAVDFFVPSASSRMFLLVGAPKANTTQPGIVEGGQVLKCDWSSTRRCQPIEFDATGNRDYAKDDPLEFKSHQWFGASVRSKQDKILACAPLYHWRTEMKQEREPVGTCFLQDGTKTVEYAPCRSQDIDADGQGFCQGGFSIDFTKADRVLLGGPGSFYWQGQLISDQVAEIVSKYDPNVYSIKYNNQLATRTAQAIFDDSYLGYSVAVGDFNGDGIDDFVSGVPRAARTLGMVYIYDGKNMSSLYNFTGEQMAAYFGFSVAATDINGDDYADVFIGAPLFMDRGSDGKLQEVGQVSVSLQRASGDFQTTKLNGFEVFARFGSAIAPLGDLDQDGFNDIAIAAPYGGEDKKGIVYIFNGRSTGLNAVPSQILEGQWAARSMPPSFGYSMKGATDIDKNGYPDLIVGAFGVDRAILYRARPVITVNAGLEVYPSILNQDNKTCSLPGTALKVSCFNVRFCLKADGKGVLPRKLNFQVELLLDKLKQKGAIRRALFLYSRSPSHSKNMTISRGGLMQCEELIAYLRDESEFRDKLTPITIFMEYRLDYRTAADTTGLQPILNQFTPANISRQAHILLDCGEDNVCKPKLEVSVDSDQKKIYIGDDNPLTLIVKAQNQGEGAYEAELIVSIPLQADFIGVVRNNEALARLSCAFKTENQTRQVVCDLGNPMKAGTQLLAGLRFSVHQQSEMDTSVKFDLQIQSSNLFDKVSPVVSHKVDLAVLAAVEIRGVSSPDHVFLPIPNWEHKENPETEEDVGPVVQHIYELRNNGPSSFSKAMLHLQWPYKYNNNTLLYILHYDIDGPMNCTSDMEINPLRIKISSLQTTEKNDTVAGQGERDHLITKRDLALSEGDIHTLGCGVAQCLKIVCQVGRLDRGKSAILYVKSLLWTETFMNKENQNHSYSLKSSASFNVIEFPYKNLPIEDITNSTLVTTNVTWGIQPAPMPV
T4 chain 2: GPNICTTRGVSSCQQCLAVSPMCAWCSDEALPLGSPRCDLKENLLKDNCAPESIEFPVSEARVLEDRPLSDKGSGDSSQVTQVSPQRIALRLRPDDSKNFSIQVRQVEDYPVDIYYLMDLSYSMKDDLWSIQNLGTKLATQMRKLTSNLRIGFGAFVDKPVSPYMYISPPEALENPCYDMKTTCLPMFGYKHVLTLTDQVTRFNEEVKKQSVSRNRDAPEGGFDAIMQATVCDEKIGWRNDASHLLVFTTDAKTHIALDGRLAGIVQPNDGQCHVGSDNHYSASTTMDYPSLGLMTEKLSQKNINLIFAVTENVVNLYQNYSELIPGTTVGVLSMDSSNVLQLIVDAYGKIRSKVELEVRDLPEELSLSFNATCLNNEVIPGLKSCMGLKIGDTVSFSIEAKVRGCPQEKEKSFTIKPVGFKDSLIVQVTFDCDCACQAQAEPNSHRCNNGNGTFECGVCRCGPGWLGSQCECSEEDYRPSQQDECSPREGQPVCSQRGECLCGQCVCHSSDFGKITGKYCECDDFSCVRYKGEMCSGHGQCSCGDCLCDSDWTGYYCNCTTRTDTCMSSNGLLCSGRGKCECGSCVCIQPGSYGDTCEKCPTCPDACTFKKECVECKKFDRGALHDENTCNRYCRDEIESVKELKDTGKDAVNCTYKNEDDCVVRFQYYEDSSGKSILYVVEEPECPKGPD

As a reminder, the IC50 is the concentration that inhibits the measured activity by half. A lower IC50 goes with greater potency in that assay.

For cyclo(RGDL[dP][NMeK]([Gly-Pro-Pro-Pro-Pro-Pro-Pro-Gly-BDPFL])GL) [Compound 9f (9-G(P)6G-BDPFL)], the IC50 with integrin αvβ8 is 7.98 nM; with integrin α5β1, 782 nM; in the assay with integrin αvβ5, over 10000 nM; in the assay with integrin αvβ6, 453 nM; with integrin αvβ3 it was 42 nM.
